Patent publication US20240293570A1 (priority 2021, published 2024)
Like-named read-outs stand apart in the source and are kept apart here. *1 amine or outer side, *2 acyl side, *3 side chain or, on linkers, in order; H or OH if unused. Where a SMILES comes first, the peptide text is derived from it. [ ]: non-standard residue; d: D form. The star is where a group is joined. Exatecan = CC[C@@]1(O)C(=O)OCc2c1cc1n(c2=O)Cc2c-1nc1cc(F)c(C)c3c1c2[C@@H](N*)CC3; Propanoyl(3-maleimido) = O=C1C=CC(=O)N1CCC(=O)*; X1 = O=C(CN1CCOCCN([*:1])CCOCC1)[*:2]; NHCH2OCH2CO = O=C(COCN[*:1])[*:2]

Tests used:
[1] = format: physicochemical; details: ADC with Her2 antibody, RP-HPLC-MS
Experimental: (§1) A drug-antibody conjugating ratio (also known as drug-antibody ratio, abbreviated as DAR) of the antibody-drug conjugate was tested using reversed-phase high-performance liquid chromatography-mass chromatography (RP-HPLC-MS). The ADC sample was diluted with 50 mmol/L Tris buffer (pH 8.0) to 1 mg/ml. A fresh dithiothreitol (DTT) stock solution was added to achieve a final DTT concentration of 50 mmol/L. Incubation was performed at 37° C. for 30 minutes. A PLRP-S chromatographic column (1000 Å pores, 2.1×50 mm, 5) μm) was used, and the column temperature was 70° C. The flow rate was 0.25 mL/min. […] of sample was injected; the mobile phase A was an aqueous solution of 0.1% formic acid (V/V) and 0.025% trifluoroacetic acid (V/V), and the mobile phase B was an acetonitrile solution of 0.1% formic acid (V/V) and 0.025% trifluoroacetic acid (V/V); the running time was 0-3 minutes, where 27% of mobile phase B ran for 3 minutes, and the mobile phase B ran from 27% to 49% within 3-25 minutes, from 49% to 95% within 25-26 minutes, at 95% within […], from 95% to 27% within 30-31.5 minutes, and at 27% for 31.5-45 minutes. […] Mass spectrometry drying gas was at a temperature of 350° C. and a flow rate of 7.0 L/min, the pressure of an atomizer was 40 psi, capillary voltage was positive 3000V and negative 3000V, and the mass range was 500-1600 m/z. The molecular weight of each mass spectrometry peak (ranging from 20000 to 70000) was calculated by deconvolution and compared with light and heavy chain molecular weights of un-conjugated antibodies to calculate a drug load at each peak, so as to determine the load of a corresponding ultraviolet peak. Area percentages of heavy and light chain ultraviolet peaks were calculated through integration, and a weighted average DAR of the antibody-drug conjugate was calculated by combining the area percentages with the drug load distribution of each peak.

[2] = Polymer (high molecular component) content of antibody-drug conjugates by SE-HPLC; format: physicochemical; details: ADC with Her2 antibody
Experimental: (§2) Polymers (high molecular components) of the antibody-drug conjugates were tested using molecular exclusion high-performance liquid chromatography (SE-HPLC). A Biocore SEC chromatographic column (7.8×300 mm, […]) was used, and the mobile phase was 50 mM phosphate containing 300 mM sodium chloride (pH 6.8), with a flow rate of 0.5 mL/min. Samples of […] and 10 μl were injected. […] The polymer content of an antibody-drug conjugate was calculated using an area normalization method.

[3] = Naked antibody content of antibody-drug conjugates by hydrophobic interaction chromatography (HIC); format: physicochemical; details: ADC with Her2 antibody
Experimental: The content of naked antibodies in the antibody-drug conjugate was tested using hydrophobic interaction chromatography (HIC). A Biocore HIC-Butyl chromatographic column (4.6×150 mm, 5 μm) was used. The mobile phase A was a 100 mM phosphate aqueous solution containing 2 M ammonium sulfate (pH 7.0), and the mobile phase B was a 100 mM phosphate aqueous solution (pH 7.0): isopropanol=80:20 (V/V). Samples of 50 μg and 10 μl were injected. The mobile phase A at the flow rate of 1 mL/min ran at 100% for 3 minutes. Within 3-25 minutes, the mobile phase B ran from […] to 100%, while the mobile phase B decreased to 0% at 25.1 and ran to 30 minutes. […] The naked antibody content of the antibody-drug conjugate was calculated using an area normalization method based on the retention time of a naked antibody peak located by the antibody of the antibody-drug conjugate.

[4] = Stability (placement) test of ADCs at 40° C. in dark for 14 days, DAR and polymer content; format: physicochemical
Experimental: as §2, §1
Stability testing method: The stability of the obtained ADCs was tested for 14 days. The ADCs were placed at 40° C. in dark. Sampling points were days 0, 7, and 14. The polymer content and DAR value of samples at different sampling points were tested according to the method in Experimental Example 1.

[5] = Plasma stability of ADCs, generated payload by LC-MS/MS, mouse plasma; format: in vitro ADME, CD-1 mice; details: 37° C., 100 μg/mL, up to 21 d, FIG. 7-9
Experimental: (§3) In order to further evaluate the characteristics of ADCs, the plasma stability of ADCs was tested. The plasma stability was tested by the following steps:
(§4) A test sample stock solution was diluted with ultra-pure water into a working solution having a concentration of 2.5 mg/mL. The working solution was prepared as needed and used at room temperature.
(§5) Follow the following steps to test plasma samples: • (1) 980 μL of plasma was collected from blank CD-1 mice, monkeys, and humans (experimental group N=2, control group N=1) and pre-incubated at 37° C. for 5 minutes; • (2) 20 μL of test compound working solution (or positive control drug (payload) working solution) was added, followed by vortex mixing (final concentration of the test compound was 100 μg/mL, and final concentration of the positive control drug was 1 μM). 50 μL of plasma sample was immediately added into 150 μL of ice precipitant, followed by vortex mixing as a 0 h sample; • (3) The remaining plasma samples were sealed and further incubated at 37° C., and 50 μL of each plasma sample was pipetted into 150 μL of ice precipitant according to preset time points in Table 3, followed by vortex mixing; […]
(§6) The samples were analyzed using liquid chromatography-tandem mass spectrometry (LC-MS/MS) to measure the quantity of a generated payload, where the quantities of two payloads were measured for dual toxin ADCs respectively.

[6] = Plasma stability of ADCs, generated payload by LC-MS/MS, monkey plasma; format: in vitro ADME, monkeys; details: 37° C., 100 μg/mL, up to 21 d, FIG. 7-9
Experimental: as §3, §4, §5, §6

[7] = Plasma stability of ADCs, generated payload by LC-MS/MS, human plasma; format: in vitro ADME, humans; details: 37° C., 100 μg/mL, up to 21 d, FIG. 7-9
Experimental: as §3, §4, §5, §6

| SMILES | DAR [1] | Polymer content (%) [2] | Naked antibody content (%) [3] | DAR ([4]; Day 0, 40° C. in dark) | Polymer content (%) ([4]; Day 0, 40° C. in dark) | DAR ([4]; Day 7, 40° C. in dark) | Polymer content (%) ([4]; Day 7, 40° C. in dark) | DAR ([4]; Day 14, 40° C. in dark) | Polymer content (%) ([4]; Day 14, 40° C. in dark) | stability in the plasma of mice [5] | stability in the plasma of monkeys [6] | stability in the plasma of humans [7] |
| --- | --- | --- | --- | --- | --- | --- | --- | --- | --- | --- | --- | --- |
| C=C1C[C@@H]2CC[C@@]34C[C@H]5OC6C(O[C@H]7CC[C@H](CC(=O)C[C@@H]8[C@@H](OC)[C@@H](C[C@H](O)CNC(=O)CNC(=O)[C@H](Cc9ccccc9)NC(=O)CNC(=O)CNC(=O)CCOCCOCCN(CCOCCOCCC(=O)NCC(=O)NCC(=O)N[C@@H](Cc9ccccc9)C(=O)NCC(=O)NCOCC(=O)N[C@H]9CCc%10c(C)c(F)cc%11nc%12c(c9c%10%11)Cn9c-%12cc%10c(c9=O)COC(=O)[C@]%10(O)CC)C(=O)CN9CCOCCOCCOCCOCCN(C(=O)CCOCCOCCOCCOCCC%10C(=O)C=CC%10=O)CCOCCOCCOCCOCC9)O[C@H]8C[C@H]8O[C@@H](CC[C@@H]1O2)C[C@@H](C)C8=C)O[C@@H]7[C@@H]6O3)[C@H]5O4 [Example 13] | 4.02 | 0.77% | 5.02% | 4.02 | 0.77% | 4.02 | 0.78% | 4.04 | 0.91% | significantly better | significantly better | significantly better |
| CC[C@@]1(O)C(=O)OCc2c1cc1n(c2=O)Cc2c-1nc1cc(F)c(C)c3c1c2[C@@H](NC(=O)COCNC(=O)CNC(=O)[C@H](Cc1ccccc1)NC(=O)CNC(=O)CNC(=O)CN1CCOCCN(C(=O)CCN2C(=O)C=CC2=O)CCOCC1)CC3 [Example 22] ({Propanoyl(3-maleimido)}-[X1]GGFG[NHCH2OCH2CO]-Exatecan) | 4.14 | 0.76% | 0.00% | 4.14 | 0.76% | 4.12 | 0.81% | 4.15 | 0.78% | significantly better | significantly better | significantly better |
| C=C1C[C@@H]2CC[C@@]34C[C@H]5OC6C(O[C@H]7CC[C@H](CC(=O)C[C@@H]8[C@@H](OC)[C@@H](C[C@H](O)CNC(=O)CNC(=O)[C@H](Cc9ccccc9)NC(=O)CNC(=O)CNC(=O)CCOCCOCCN(CCOCCOCCC(=O)NCC(=O)NCC(=O)N[C@@H](Cc9ccccc9)C(=O)NCC(=O)NCOCC(=O)N[C@H]9CCc%10c(C)c(F)cc%11nc%12c(c9c%10%11)Cn9c-%12cc%10c(c9=O)COC(=O)[C@]%10(O)CC)C(=O)CN9CCOCCOCCOCCOCCN(C(=O)CCOCCOCCOCCOCCOCCOCCOCCOCCN%10C(=O)C=CC%10=O)CCOCCOCCOCCOCC9)O[C@H]8C[C@H]8O[C@@H](CC[C@@H]1O2)C[C@@H](C)C8=C)O[C@@H]7[C@@H]6O3)[C@H]5O4 [Example 15] | 4.07 | 1.20% | 3.63% | 4.07 | 1.20% | 4.07 | 1.21% | 4.11 | 1.27% |  |  |  |
| C=C1C[C@@H]2CC[C@@]34C[C@H]5OC6C(O[C@H]7CC[C@H](CC(=O)C[C@@H]8[C@@H](OC)[C@@H](C[C@H](O)CNC(=O)CNC(=O)[C@H](Cc9ccccc9)NC(=O)CNC(=O)CNC(=O)CCOCCOCCN(CCOCCOCCC(=O)NCC(=O)NCC(=O)N[C@@H](Cc9ccccc9)C(=O)NCC(=O)NCOCC(=O)N[C@H]9CCc%10c(C)c(F)cc%11nc%12c(c9c%10%11)Cn9c-%12cc%10c(c9=O)COC(=O)[C@]%10(O)CC)C9CCC(NC(=O)CN%10CCOCCOCCOCCN(C(=O)CCCCCN%11C(=O)C=CC%11=O)CCOCCOCCOCC%10)CC9)O[C@H]8C[C@H]8O[C@@H](CC[C@@H]1O2)C[C@@H](C)C8=C)O[C@@H]7[C@@H]6O3)[C@H]5O4 (stereo partly drawn) [Example 19] | 3.92 | 1.53% | 5.22% | 3.92 | 1.53% | 3.91 | 1.56% | 3.87 | 1.49% |  |  |  |
| C=C1C[C@@H]2CC[C@@]34C[C@H]5OC6C(O[C@H]7CC[C@H](CC(=O)C[C@@H]8[C@@H](OC)[C@@H](C[C@H](O)CNC(=O)OCc9ccc(NC(=O)[C@H](CCCNC(N)=O)NC(=O)[C@@H](NC(=O)CN%10CCOCCN(C(=O)CCN%11C(=O)C=CC%11=O)CCOCC%10)C(C)C)cc9)O[C@H]8C[C@H]8O[C@@H](CC[C@@H]1O2)C[C@@H](C)C8=C)O[C@@H]7[C@@H]6O3)[C@H]5O4 [Example 87] | 3.85 | 1.12% | 2.11% | 3.85 | 1.12% | 3.87 | 1.15% | 3.81 | 1.24% |  |  |  |
| C=C1C[C@@H]2CC[C@@]34C[C@H]5OC6C(O[C@H]7CC[C@H](CC(=O)C[C@@H]8[C@@H](OC)[C@@H](C[C@H](O)CNC(=O)CNC(=O)[C@H](Cc9ccccc9)NC(=O)CNC(=O)CNC(=O)CCOCCOCCN(CCOCCOCCC(=O)NCC(=O)NCC(=O)N[C@@H](Cc9ccccc9)C(=O)NCC(=O)NCOCC(=O)N[C@H]9CCc%10c(C)c(F)cc%11nc%12c(c9c%10%11)Cn9c-%12cc%10c(c9=O)COC(=O)[C@]%10(O)CC)C9CCC(NC(=O)CN%10CCOCCOCCOCCN(C(=O)CCOCCOCCOCCOCCN%11C(=O)C=CC%11=O)CCOCCOCCOCC%10)CC9)O[C@H]8C[C@H]8O[C@@H](CC[C@@H]1O2)C[C@@H](C)C8=C)O[C@@H]7[C@@H]6O3)[C@H]5O4 (stereo partly drawn) [Example 20] | 3.85 | 1.48% | 4.23% | 3.85 | 1.48% | 3.87 | 1.50% | 3.89 | 1.43% |  |  |  |
